Measurements as given in publication PMC7959842, “Deregulation of Factor H by Factor H-Related Protein 1 Depends on Sialylation of Host Surfaces” (Frontiers in Immunology, 2021).

Assays:
[1] = target: C3b (UniProt P01024); experiment: SPR; AP C3 convertase formation: ~6,000 RU C3b amine-coupled on a CMD500M chip; FB (600 nM) + FD (100 nM) injected alone or mixed with analyte (9.6 uM); signal of the analyte alone subtracted; 25 C, PBS 0.005% Tween20, 1 mM MgCl2
[2] = target: C3b (UniProt P01024); experiment: SPR; C3b immobilised in two ways: biotin coupling (~1,500 RU on a streptavidin SAP chip) and amine coupling (~7,250 RU on a CMD500M chip); analytes flowed (FH18-20 constructs 0.16-40 or 0.63-40 uM, FHR-1 constructs 0.04-10 uM); 25 C, PBS 0.005% Tween20, 25 ul/min; 1:1 steady-state affinity fit; the printed ranges span both ways of immobilisation

| Substance | decrease of the AP C3 convertase signal (FB + FD on C3b) with the analyte co-injected at 9.6 uM [1] [%] | Kd [2] [µM] |
| --- | --- | --- |
| FHR-1 (factor H-related protein 1, FHR-1*B, wild-type) (from UniProt Q03591 19-330) (natural protein) | 50 |  |
| FHR-1(SV) (from UniProt Q03591 19-330) (natural protein) | 50 | 1.4 to 1.5 |
